Non-standard residues stand in square brackets, D forms with d. No end group written: not given here. Aun = NCCCCCCCCCCC(=O)O
T1: CXCR3 receptor (UniProt P49682 1-368, limits assumed)
T1 sequence (looked up): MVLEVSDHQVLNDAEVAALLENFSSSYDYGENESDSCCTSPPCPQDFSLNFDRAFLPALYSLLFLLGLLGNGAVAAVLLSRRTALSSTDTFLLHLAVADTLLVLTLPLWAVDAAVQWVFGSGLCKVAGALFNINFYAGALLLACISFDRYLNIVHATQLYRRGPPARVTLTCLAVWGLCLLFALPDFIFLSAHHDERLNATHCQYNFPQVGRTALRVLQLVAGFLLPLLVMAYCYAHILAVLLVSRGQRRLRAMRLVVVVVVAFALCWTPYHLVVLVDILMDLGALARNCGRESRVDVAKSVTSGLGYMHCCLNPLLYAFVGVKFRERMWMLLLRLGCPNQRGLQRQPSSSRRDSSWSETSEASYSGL


These binders were tested against T1, CXCR3 receptor (assay: cell-based or functional assay).

First: VPLSRTVRSTSISIS[Aun]ESKAIENLLKAVSK [[Ser^9,Ser^11,Glu^63]-IP-10-(1-15)-[linker]-IP-10-(58-71)]
Second: VPLSRTVRSTSISIS[Aun]ESKAIKNLLEAVSK [[Ser^9,Ser^11,Glu^67]-IP-10-(1-15)-[linker]-IP-10-(58-71)]
The “calcium mobilization activity of CXCR-3/300-19 cells, dosage 1.2 µM” value (“calcium mobilization activity … dosage 1.2 µM” below) of the first is higher: 18.8 for the first, 17.4 for the second.

First: VPLSRTPRCTCISIS[Aun]ESKAIKNLLKAVSK (cysteine pairing not given here) [[Pro^7]-IP-10-(1-15)-[linker]-IP-10-(58-71)]
Second: Ac-VPLSRTVRCTCISISN[Aun]LKAVSKEMSKRSP (cysteine pairing not given here) [Acetylated-IP-10-(1-16)-[linker]-IP-10-(66-78)]
The “calcium mobilization activity … dosage 1.2 µM” value of the first is higher: 16 for the first, 12.6 for the second.

Ac-VPLSRTVRATFISISN[Aun]LKAVSKEMSKRSP [Acetylated-[Ala^9,Phe^11]-IP-10-(1-16)-[linker]-IP-10-(66-78)] was tested, and the “calcium mobilization activity … dosage 1.2 µM” value was 15.2.

Going from VPLSRTVRSTSISIS[Aun]ESKAIENLLKAVSK [[Ser^9,Ser^11,Glu^63]-IP-10-(1-15)-[linker]-IP-10-(58-71)] to VPLSRTVRSTSISIS[Aun]ESKAIKNLLEAVSK [[Ser^9,Ser^11,Glu^67]-IP-10-(1-15)-[linker]-IP-10-(58-71)], the “calcium mobilization activity of CXCR-3/300-19 cells, dosage 3.7 µM” value (“calcium mobilization activity … dosage 3.7 µM” for short) falls from 18.5 to 15.4.

Going from VPLSRTPRCTCISIS[Aun]ESKAIKNLLKAVSK (cysteine pairing not given here) [[Pro^7]-IP-10-(1-15)-[linker]-IP-10-(58-71)] to Ac-VPLSRTVRCTCISISN[Aun]LKAVSKEMSKRSP (cysteine pairing not given here) [Acetylated-IP-10-(1-16)-[linker]-IP-10-(66-78)], the “calcium mobilization activity … dosage 3.7 µM” value falls from 14 to 12.7.

For Ac-VPLSRTVRATFISISN[Aun]LKAVSKEMSKRSP [Acetylated-[Ala^9,Phe^11]-IP-10-(1-16)-[linker]-IP-10-(66-78)], the “calcium mobilization activity … dosage 3.7 µM” value was 13.8.

Going from VPLSRTVRSTSISIS[Aun]ESKAIENLLKAVSK [[Ser^9,Ser^11,Glu^63]-IP-10-(1-15)-[linker]-IP-10-(58-71)] to VPLSRTVRSTSISIS[Aun]ESKAIKNLLEAVSK [[Ser^9,Ser^11,Glu^67]-IP-10-(1-15)-[linker]-IP-10-(58-71)], the “calcium mobilization activity of CXCR-3/300-19 cells, dosage 11.1 µM” value (from here on “calcium mobilization activity … dosage 11.1 µM”) falls from 17.2 to 12.5.

Compared with VPLSRTPRCTCISIS[Aun]ESKAIKNLLKAVSK (cysteine pairing not given here) [[Pro^7]-IP-10-(1-15)-[linker]-IP-10-(58-71)], Ac-VPLSRTVRCTCISISN[Aun]LKAVSKEMSKRSP (cysteine pairing not given here) [Acetylated-IP-10-(1-16)-[linker]-IP-10-(66-78)] is lower in “calcium mobilization activity … dosage 11.1 µM” value: 14.4 for the first, 14.1 for the second.

In the case of Ac-VPLSRTVRATFISISN[Aun]LKAVSKEMSKRSP [Acetylated-[Ala^9,Phe^11]-IP-10-(1-16)-[linker]-IP-10-(66-78)], the “calcium mobilization activity … dosage 11.1 µM” value is reported as 15.4.

First: VPLSRTVRSTSISIS[Aun]ESKAIENLLKAVSK [[Ser^9,Ser^11,Glu^63]-IP-10-(1-15)-[linker]-IP-10-(58-71)]
Second: VPLSRTVRSTSISIS[Aun]ESKAIKNLLEAVSK [[Ser^9,Ser^11,Glu^67]-IP-10-(1-15)-[linker]-IP-10-(58-71)]
The “calcium mobilization activity of CXCR-3/300-19 cells, dosage 33.3 µM” value (shortened to “calcium mobilization activity … dosage 33.3 µM”) of the first is higher: 18.9 for the first, 13.3 for the second.

First: VPLSRTPRCTCISIS[Aun]ESKAIKNLLKAVSK (cysteine pairing not given here) [[Pro^7]-IP-10-(1-15)-[linker]-IP-10-(58-71)]
Second: Ac-VPLSRTVRCTCISISN[Aun]LKAVSKEMSKRSP (cysteine pairing not given here) [Acetylated-IP-10-(1-16)-[linker]-IP-10-(66-78)]
The “calcium mobilization activity … dosage 33.3 µM” value of the first is lower: 18.6 for the first, 20 for the second.

Ac-VPLSRTVRATFISISN[Aun]LKAVSKEMSKRSP [Acetylated-[Ala^9,Phe^11]-IP-10-(1-16)-[linker]-IP-10-(66-78)] was tested, and the “calcium mobilization activity … dosage 33.3 µM” value was 20.

Going from VPLSRTVRSTSISIS[Aun]ESKAIENLLKAVSK [[Ser^9,Ser^11,Glu^63]-IP-10-(1-15)-[linker]-IP-10-(58-71)] to VPLSRTVRSTSISIS[Aun]ESKAIKNLLEAVSK [[Ser^9,Ser^11,Glu^67]-IP-10-(1-15)-[linker]-IP-10-(58-71)], the “calcium mobilization activity of CXCR-3/300-19 cells, dosage 100 µM” value (“calcium mobilization activity … dosage 100 µM” below) falls from 46.6 to 3.4.

Going from VPLSRTPRCTCISIS[Aun]ESKAIKNLLKAVSK (cysteine pairing not given here) [[Pro^7]-IP-10-(1-15)-[linker]-IP-10-(58-71)] to Ac-VPLSRTVRCTCISISN[Aun]LKAVSKEMSKRSP (cysteine pairing not given here) [Acetylated-IP-10-(1-16)-[linker]-IP-10-(66-78)], the “calcium mobilization activity … dosage 100 µM” value falls from 55.1 to 52.9.

For Ac-VPLSRTVRATFISISN[Aun]LKAVSKEMSKRSP [Acetylated-[Ala^9,Phe^11]-IP-10-(1-16)-[linker]-IP-10-(66-78)], the “calcium mobilization activity … dosage 100 µM” value was 3.1.

— patent publication EP1882698A1 (Chemokine Therapeutics Corp., dated 2008)
